Data: paper PMC8112011, “Adaptive laboratory evolution accelerated glutarate production by Corynebacterium glutamicum” (Microbial Cell Factories, 2021)
Positions count from the first letter of the chain named. Names and notes keep the numbering of the source.

B1: GltBD (GOGAT, L-glutamic acid-2-oxoglutarate aminotransferase) (Corynebacterium glutamicum ATCC 13032) (protein)
chain: CGVAFIADIHGRPSRSIVDRALEALRNIDHRGAAGAEKNTGDGAGILMQIPDGFYREVSGIELPEAGEYATGIAFLPRGRMAMMDAQKEIERIAKQEGADVLGWRMVPFDSRDLGSMAEEAMPSFAQIFLTVPGKSGEDLDRVMFFIRKRCERELGTTNGRDTVYFPSLSSRTIIYKGMLTTLQLEGFFEDLGDARLESAIAIVHSRFSTNTFPSWPLAHPYRFVAHNGEINTVRGNENWMRAREALIKNDKLGNLSSVLPICTPEGSDTARFDEALELLHLGGYSLPHAVAMMIPQAWEHNKTLSPELRDFYEYHSCLMEPWDGPAALAFTDGRFVGAVLDRNGLRPGRITITDSGLVVMASESGVLDLREESVVKRTRVQPGRMFLVDTAEGRIVEDEEIKQKLSEAQPYGEWIRDNFVHLDRLPQTRYNYMAHSRAVLRQRVFGITEEDVDLLLLPMARQGAEAIGSMGSDTPIAALSQRPRMLYDFFAQRFAQVTNPPLDSIREKPVTSMFTLLGAQSDVLNPGPDAARRIRLESPIIDNHELATLINANAHGEWDSFGAAVISGLYPVAHHGAGMKAAIARVRREVSEAIRNGKTLIVLSDRESDERMAPIPALLLTSAVHQYLVQQRTRTQCSLVVESGDAREVHHLAMLIGFGADAINPYMAFETIDELRMKGQLGDLSLDEASRNYIKAATTGVLKVMSKMGIATVSSYRGAQLADVTGLHQDLLDNYFGGIASPISGIGLDEVAADVEARHRSAFLPRPEEHAHRELDLGGEYKWRREGEYHLFNPETIFKLQHATRSGSYEIFKDYTRKVDDQSTRLGTIRGLFEFSTDRKPISVSEVEPVSEIVKRFSTGAMSYGSISAEAHEVLAIAMNRLGGMSNSGEGGEDARRFDVEPNGDWKRSAIKQVASGRFGVTSHYLNNCTDIQIKMAQGAKPGEGGQLPPNKVYPWVAEVRITTPGVGLISPPPHHDIYSIEDLAQLIHDLKNANPRARIHVKLVAEQGVGTVAAGVSKAHADVVLISGHDGGTGASPLTSLKHAGGPWELGLAETQQTLLLNGLRDRIRVQCDGQLKTGRDVVIAALLGAEEFGFATAPLVVEGCIMMRVCHLDTCPVGIATQNPDLRSKFTGKAEHVVNFFTFIAQEVREYLAQLGFRSIDEAVGQAQVLRKRSGIPADSRAAHLDLSPIFHRPETPHFPTQDVRCTKTQEHSLEKALDNAFIDKASDTITRAAAGVETSIVIDSSISNVNRSVGTMLGSAVSRVAGAQGLPDGTITLNLQGCAGNSFGAFIPRGITINLTGDANDFVGKGLSGGKIVIKPSAQAPKQLKNNPNIIAGNVLGYGATSGELFIRGQVGERFCVRNSGATAVVEGIGNHGCEYMTGGRVLVLGPVGENFGAGMSGGIAYLANSPDLNQKINGELVDVVPLSADDLTWADELIARHRELTGSETKLRAQDLVKIMPRDFQKVLNIIETAHAEGQDPAIKIMEAVS
notes: full-length gltBD on plasmid pEKEx3, overexpressed in C. glutamicum GRLys1ΔgltB (chromosomal gltB deleted); untagged; crude extract; with Glutamate synthase [NADPH] small chain
B2: GltBD (GOGAT, L-glutamic acid-2-oxoglutarate aminotransferase) (Corynebacterium glutamicum ATCC 13032; E686Q) (protein)
chain: B1 chain with E671Q
notes: as for B1

Substrate: NC(=O)CC[C@H](N)C(=O)O
Assay: cells, lysate or membranes
Assay type: biochemical, Corynebacterium glutamicum
Details: 1.5 mM NADPH, 35 mM 2-oxoglutarate, 100 mM phosphate pH 7.0, 30 °C

| Protein | Km |
| --- | --- |
| B1 | 250 ± 30 µM |
| B2 | 520 ± 40 µM |
